What was measured:
[1] = target: T1, recombinant human Notch3 extracellular domain (containing EGF like domains 1-11) Fc fusion protein (human, UniProt Q9UM47 40-467); assay: SPR Biacore T100, 4F11 captured by anti-mouse IgG, rhNotch3-Fc analyte, 25 C
T1 construct: domain: EGF like domains 1-11; also called rhNotch3-Fc; rhNotch3
T1 sequence (looked up): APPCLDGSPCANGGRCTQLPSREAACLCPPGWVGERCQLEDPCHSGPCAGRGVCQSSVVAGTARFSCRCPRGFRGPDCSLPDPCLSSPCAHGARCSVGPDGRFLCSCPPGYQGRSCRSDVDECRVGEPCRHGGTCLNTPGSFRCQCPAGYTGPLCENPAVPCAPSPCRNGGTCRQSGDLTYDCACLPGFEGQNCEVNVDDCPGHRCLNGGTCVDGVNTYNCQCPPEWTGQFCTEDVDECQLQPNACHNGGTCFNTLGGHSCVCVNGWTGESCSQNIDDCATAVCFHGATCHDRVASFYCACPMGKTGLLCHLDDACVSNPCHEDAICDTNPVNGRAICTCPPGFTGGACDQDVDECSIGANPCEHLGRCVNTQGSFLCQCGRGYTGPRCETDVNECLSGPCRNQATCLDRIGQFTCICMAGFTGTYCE
Experimental: (§1) The binding affinity and kinetics of binding of antibody 4F11 to recombinant human Notch3 extracellular domain (containing EGF like domains 1-11) Fc fusion protein (rhNotch3-Fc (R&D Systems, Inc., Minneapolis, Minn.)) were measured by surface plasmon resonance using a Biacore® T100 instrument (GE Healthcare, Piscataway, N.J.).
(§2) Rabbit anti-mouse IgGs (GE Healthcare) were immobilized on carboxymethylated dextran CM4 sensor chips (GE Healthcare) by amine coupling, according to a standard protocol. Analyses were performed at 25° C. and 37° C. using PBS containing 0.05% surfactant P20 as running buffer. The antibody was captured in individual flow cells at a flow rate of 10 μl/minute. Injection time was varied for each antibody to yield an Rmax between 30 and 60 resonance units (RU). Buffer or rhNotch3-Fc diluted in running buffer was injected sequentially over a reference surface (no antibody captured) and the active surface (antibody to be tested) for 240 seconds at 60 μl/minute. The dissociation phase was monitored for up to 1500 seconds. The surface was then regenerated with two 60-second injections of 10 mM Glycine-HCl, pH 2.25, at a flow rate of 30 μl/minute. The rhNotch3-Fc concentration range tested was 100 nM to 3.125 nM (2 fold dilution).
(§3) Kinetic parameters were determined using the kinetic function of the BIAevaluation software (GE Healthcare) with double reference subtraction. Kinetic parameters for the antibody, kₐ (association rate constant), kd (dissociation rate constant) and KD (equilibrium dissociation constant) were determined.

[2] = target: T2, human Notch3 on the cell surface (human, UniProt Q9UM47 40-2321); assay: FACS on CHO N3 cells (human Notch3), 4 C, one site binding fit
T2 construct: whole, on cells; the cells carry the full length protein; also called cell surface human Notch3; hNotch3
Experimental: Binding to cell surface human Notch3 by the antibody 4F11 was measured at 4° C., using Fluorescence Activated Cell Sorting (FACS). CHO N3 (Flp-In-CHO cells (Invitrogen) stably transfected with human Notch3), HCC2429 cells, and RL-952 cells expressing human Notch3 were washed once with PBS containing calcium chloride and magnesium chloride (Invitrogen) and harvested using cell dissociation buffer (Invitrogen). Cells were washed a second time with PBS and resuspended in FACS buffer (PBS with 0.5% BSA (Sigma-Aldrich)) for a final cell concentration of 250,000 cells per well into a 96-well v-bottom plate. Purified antibodies were diluted in FACS buffer over a concentration range of 100 nM to 0.1 nM. Cells were then incubated at 4° C. with […] of antibody for one hour, washed with FACS buffer twice, and resuspended in […] of goat-anti mouse PE-conjugated antibody (Jackson Immuno Research). Cells were incubated at 4° C. for 30 minutes in the dark, washed once with FACS buffer, and then analyzed using a Beckman Coulter Cytomics FC 500 instrument. The geometric mean of the florescent intensity was then calculated for each antibody concentration. These values were then entered into Prism software (GraphPad, La Jolla, Calif.) and used to generate a binding curve by plotting geometric mean versus antibody concentration. […]

[3] = target: T1, recombinant human Notch3 extracellular …; assay: SPR Biacore T100, 4F11 captured by anti-mouse IgG, rhNotch3-Fc analyte, 37 C
Experimental: as §1, §2, §3

[4] = target: T3, human Notch4 expressed on the surface of CHO cells (human, UniProt Q99466 24-2003); assay: electrochemiluminescence (Meso Scale Discovery) on transfected CHO cells
T3 construct: whole, on cells
T3 sequence (Q99466 24-2003): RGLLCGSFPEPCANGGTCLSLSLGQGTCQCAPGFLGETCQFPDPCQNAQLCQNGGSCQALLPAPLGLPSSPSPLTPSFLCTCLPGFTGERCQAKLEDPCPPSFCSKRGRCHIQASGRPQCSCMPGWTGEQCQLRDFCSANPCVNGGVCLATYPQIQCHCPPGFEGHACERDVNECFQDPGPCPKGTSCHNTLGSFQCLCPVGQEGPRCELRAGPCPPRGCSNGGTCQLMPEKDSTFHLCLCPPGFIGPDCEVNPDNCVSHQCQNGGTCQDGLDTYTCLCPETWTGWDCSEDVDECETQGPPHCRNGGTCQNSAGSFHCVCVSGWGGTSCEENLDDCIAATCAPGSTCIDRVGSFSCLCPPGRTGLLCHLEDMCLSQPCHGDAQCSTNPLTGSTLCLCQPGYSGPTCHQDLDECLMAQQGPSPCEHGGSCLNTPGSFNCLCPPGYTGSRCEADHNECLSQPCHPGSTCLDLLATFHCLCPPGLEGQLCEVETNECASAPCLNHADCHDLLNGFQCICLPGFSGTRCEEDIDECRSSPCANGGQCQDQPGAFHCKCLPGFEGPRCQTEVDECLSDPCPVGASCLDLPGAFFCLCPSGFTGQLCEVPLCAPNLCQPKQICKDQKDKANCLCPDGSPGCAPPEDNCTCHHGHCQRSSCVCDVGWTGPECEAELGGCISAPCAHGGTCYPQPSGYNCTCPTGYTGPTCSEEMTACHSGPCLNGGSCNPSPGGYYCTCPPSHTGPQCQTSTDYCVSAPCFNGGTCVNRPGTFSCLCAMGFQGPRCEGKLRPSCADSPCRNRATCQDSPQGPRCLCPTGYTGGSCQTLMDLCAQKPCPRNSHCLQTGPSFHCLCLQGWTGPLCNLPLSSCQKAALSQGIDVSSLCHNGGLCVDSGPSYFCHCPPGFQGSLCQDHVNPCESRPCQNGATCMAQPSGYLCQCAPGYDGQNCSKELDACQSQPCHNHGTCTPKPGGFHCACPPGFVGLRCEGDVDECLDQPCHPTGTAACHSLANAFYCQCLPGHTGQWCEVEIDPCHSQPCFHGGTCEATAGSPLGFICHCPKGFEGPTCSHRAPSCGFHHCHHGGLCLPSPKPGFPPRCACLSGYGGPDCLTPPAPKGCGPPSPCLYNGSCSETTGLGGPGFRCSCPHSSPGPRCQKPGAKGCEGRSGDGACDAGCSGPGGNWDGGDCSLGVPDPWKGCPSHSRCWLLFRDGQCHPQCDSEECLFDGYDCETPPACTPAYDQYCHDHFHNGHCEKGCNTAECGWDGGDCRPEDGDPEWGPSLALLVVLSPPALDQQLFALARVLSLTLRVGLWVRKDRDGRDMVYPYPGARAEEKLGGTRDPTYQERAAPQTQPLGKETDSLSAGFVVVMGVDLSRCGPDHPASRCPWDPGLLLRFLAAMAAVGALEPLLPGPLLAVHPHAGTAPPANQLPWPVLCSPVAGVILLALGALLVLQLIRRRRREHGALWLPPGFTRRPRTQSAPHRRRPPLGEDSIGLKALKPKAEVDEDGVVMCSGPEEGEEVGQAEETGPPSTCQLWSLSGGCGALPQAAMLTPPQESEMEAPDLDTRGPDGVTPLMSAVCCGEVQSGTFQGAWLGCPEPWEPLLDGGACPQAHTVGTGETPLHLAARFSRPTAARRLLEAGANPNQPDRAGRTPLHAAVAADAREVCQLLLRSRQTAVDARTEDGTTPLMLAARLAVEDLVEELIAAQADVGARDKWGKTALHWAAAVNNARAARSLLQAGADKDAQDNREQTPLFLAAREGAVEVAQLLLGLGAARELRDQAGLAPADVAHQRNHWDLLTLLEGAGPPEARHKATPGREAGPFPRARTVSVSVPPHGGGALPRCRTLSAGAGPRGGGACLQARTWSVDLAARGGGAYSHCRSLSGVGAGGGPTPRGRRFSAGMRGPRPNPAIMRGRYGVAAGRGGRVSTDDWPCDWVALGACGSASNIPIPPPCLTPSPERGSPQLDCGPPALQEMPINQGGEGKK
Experimental: (§4) To determine specificity of binding to cell surface Notch proteins, antibody 4F11 was tested for binding to human Notch1, human Notch2, human Notch3 and human Notch4 expressed on the surface of CHO cells using electrochemiluminescence (Meso Scale Discovery). A CHO line lacking any human Notch protein was also produced for use as a negative control. Cells were grown under standard conditions (37° C., F12+10% FBS). For binding studies, cells were washed in PBS containing calcium and magnesium, and removed from the plate by treatment with Cell Dissociation Buffer (Life Technologies) for ten minutes at 37° C.
(§5) Cells were seeded at a density of 30,000 cells per well, in hybridoma media, instandard 96-well binding plates (Meso Scale Discovery, Cat. No. L15XA-6). Cells were incubated for one hour at 37° C. Antibodies or control IgG were added at 5 μg/ml, in 50 μl hybridoma media, and incubated for one hour at 37° C. The plates were washed twice with PBS containing 3% BSA. Binding of the antibodies to cell surface was detected using 2 μg/ml of MSD anti-mouse IgG secondary antibody (Meso Scale Discovery, Cat. No. R32AC-1) for one hour at 4° C. Plates were washed twice with PBS containing 3% BSA, and 150 μl of read buffer (Meso Scale Discovery Cat. No. R92TC-1) was added. The plates were analyzed on a Sector Imager 2400 instrument (Meso Scale Discovery).

[5] = target: T4, human Notch1 expressed on the surface of CHO cells (human, UniProt P46531 19-2555); assay: as above
T4 construct: whole, on cells
Experimental: as §4, §5

[6] = target: T5, human Notch2 expressed on the surface of CHO cells (human, UniProt Q04721 26-2471); assay: as above
T5 construct: whole, on cells
T5 sequence (Q04721 26-2471): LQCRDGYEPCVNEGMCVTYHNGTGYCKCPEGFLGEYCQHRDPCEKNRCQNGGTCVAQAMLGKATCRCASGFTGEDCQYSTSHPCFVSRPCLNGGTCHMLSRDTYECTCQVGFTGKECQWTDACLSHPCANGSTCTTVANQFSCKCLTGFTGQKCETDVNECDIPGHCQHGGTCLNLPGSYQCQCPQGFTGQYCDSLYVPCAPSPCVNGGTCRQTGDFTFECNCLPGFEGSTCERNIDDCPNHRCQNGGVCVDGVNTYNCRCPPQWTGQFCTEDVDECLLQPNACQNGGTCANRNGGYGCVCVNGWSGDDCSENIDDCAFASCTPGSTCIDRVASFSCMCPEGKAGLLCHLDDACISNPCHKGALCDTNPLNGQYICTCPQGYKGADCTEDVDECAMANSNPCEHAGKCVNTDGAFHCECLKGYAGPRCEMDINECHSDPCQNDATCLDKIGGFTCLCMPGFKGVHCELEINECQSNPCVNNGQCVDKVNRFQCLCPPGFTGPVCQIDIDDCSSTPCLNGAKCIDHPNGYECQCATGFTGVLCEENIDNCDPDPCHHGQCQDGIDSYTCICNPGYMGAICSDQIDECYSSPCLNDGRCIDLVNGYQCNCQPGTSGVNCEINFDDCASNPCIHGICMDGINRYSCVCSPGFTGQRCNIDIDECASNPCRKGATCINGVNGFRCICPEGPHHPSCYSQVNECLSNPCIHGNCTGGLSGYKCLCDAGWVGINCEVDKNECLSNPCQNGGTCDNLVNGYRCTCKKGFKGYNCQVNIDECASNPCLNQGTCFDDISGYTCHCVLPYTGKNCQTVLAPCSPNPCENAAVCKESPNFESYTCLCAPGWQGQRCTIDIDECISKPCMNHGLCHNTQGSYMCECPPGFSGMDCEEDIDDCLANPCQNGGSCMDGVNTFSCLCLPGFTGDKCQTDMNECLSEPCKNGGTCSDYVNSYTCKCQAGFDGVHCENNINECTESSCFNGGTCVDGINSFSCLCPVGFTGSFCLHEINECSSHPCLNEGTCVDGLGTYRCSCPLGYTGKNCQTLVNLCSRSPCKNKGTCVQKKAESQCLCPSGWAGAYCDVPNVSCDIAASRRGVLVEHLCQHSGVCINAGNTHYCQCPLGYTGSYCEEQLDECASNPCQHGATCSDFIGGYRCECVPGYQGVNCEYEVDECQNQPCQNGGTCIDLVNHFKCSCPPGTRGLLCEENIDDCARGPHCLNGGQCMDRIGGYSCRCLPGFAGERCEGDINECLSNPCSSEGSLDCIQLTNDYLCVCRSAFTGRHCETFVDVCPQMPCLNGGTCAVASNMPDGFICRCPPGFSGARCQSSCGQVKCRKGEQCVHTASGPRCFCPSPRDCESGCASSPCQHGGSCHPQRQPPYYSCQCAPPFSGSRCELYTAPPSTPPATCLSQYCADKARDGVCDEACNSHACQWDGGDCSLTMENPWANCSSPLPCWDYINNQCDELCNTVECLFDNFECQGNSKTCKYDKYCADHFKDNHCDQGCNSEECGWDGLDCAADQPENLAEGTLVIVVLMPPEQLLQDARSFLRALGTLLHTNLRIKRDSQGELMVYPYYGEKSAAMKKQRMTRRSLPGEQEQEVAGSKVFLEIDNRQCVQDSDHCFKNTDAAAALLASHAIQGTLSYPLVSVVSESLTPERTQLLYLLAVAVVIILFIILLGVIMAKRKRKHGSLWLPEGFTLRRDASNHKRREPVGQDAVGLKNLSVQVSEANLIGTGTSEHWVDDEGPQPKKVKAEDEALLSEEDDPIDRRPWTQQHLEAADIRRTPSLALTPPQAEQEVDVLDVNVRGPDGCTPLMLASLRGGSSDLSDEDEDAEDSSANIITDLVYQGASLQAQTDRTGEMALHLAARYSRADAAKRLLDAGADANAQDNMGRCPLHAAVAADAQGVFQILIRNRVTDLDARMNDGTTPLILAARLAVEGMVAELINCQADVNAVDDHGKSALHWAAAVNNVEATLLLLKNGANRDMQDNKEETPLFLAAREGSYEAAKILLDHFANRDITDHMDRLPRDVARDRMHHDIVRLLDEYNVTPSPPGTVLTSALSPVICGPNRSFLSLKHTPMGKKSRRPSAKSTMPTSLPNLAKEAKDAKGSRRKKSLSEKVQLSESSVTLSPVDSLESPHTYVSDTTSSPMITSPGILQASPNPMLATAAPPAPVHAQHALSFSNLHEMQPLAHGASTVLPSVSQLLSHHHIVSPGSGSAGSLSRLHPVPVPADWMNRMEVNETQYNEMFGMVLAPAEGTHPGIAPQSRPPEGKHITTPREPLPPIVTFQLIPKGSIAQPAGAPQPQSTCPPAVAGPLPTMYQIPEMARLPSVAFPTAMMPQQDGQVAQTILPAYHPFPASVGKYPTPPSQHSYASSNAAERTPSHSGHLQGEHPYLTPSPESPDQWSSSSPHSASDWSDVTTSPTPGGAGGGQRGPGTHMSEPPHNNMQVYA
Experimental: as §4, §5

B1: antibody 4F11 (murine monoclonal anti-human Notch3) (antibody, mouse IgG1, kappa, V domains shown)
VH: EVQLVESGGGLVKPGGSLKLSCAASGFAFSSYDMSWVRQTPEKRLEWVAYISRGGGSTYYPDTVKGRFTISRDNAKNTLYLQMSSLKSEDTAMYYCGRHATTAYWYFDVWGAGTTVTVSS
VL: DVVMTQTPLSLPVSLGDQASISCRSSQSLVHTNGNTYLHWYLQKPGQSPKLLIYKVSNRFSGVPDRFSGSGSGTDFTLKISRVEAEDLGVYFCSQSTHVPWTFGGGTKLEIKR
notes: Mouse IgG1 kappa purified from hybridoma; also called mu4F11; murine 4F11
A Kd [1] of 823 pM, a koff [1] of 4.8e-05 s⁻¹ and a kon [1] of 70000 M⁻¹ s⁻¹ were found for B1 in this work. The Kd [2] was 360 pM, the Kd [3] was 780 pM and the koff [3] was 5.7e-05 s⁻¹. For the same binder, the kon [3] was 75000 M⁻¹ s⁻¹, the binding result [4] was “no binding (tested: 5 µg/ml)” and the binding result [5] was “no binding (tested: 5 µg/ml)”. B1: no binding (tested: 5 µg/ml) [6].
